Consider three substances from PMC11077940.

Like-named read-outs stand apart in the source and are kept apart here.

Assay [1] has as its target ATP hydrolysis-deficient DctD, DctD_(H216R), prepared as a dephosphorylated form (d-DctD_(H216R)) (Vibrio vulnificus). As to the kind of experiment: SEC; d-DctD_(H216R) (alkaline phosphatase-treated) and d-IIA^Glc in 50 mM Tris-HCl pH 8.0, 20 mM KCl, 50 mM MgCl2, 100 mM NaCl applied to Superdex 200 Increase 10/300 GL; fractionated multimers used for the ATPase assay. (In general: In gel filtration, larger molecules generally elute earlier.)

For assay [2] the target is unchanged. Described as above. This is another data set of the same source.
Assay [3] addresses phosphorylation-deficient DctD (DctD_(D57Q)) of Vibrio vulnificus (Vibrio vulnificus). As to the kind of experiment: SEC; GPC of mixtures of d-IIA^Glc and DctD_(D57Q) (20 µM each; also 5 µM + 20 µM and 20 µM + 5 µM); Superdex 200 Increase 10/300 GL, running buffer 50 mM Tris-HCl pH 8.0, 20 mM KCl, 50 mM MgCl2, 300 mM NaCl; fractions analysed by SDS-PAGE with densitometry against known amounts of each protein.

For assay [4] the target is unchanged. The assay can be described thus: SEC; GPC of recombinant DctD_(D57Q) alone; Superdex 200 Increase 10/300 GL, running buffer 50 mM Tris-HCl pH 8.0, 20 mM KCl, 50 mM MgCl2, 300 mM NaCl, 0.4 mL/min; size from a regression of standard proteins.

In general, stoichiometry N refers to the number of molecules, sites or subunits per partner or assembly. With “ATP hydrolysis-deficient DctD, DctD_(H216R), prepared as a dephosphorylated form (d-DctD_(H216R)) (natural protein)”, the stoichiometry N in assay [1] amounted to 12; in assay [2], 2. For the substance “dephosphorylated form of the glucose-specific enzyme IIA (d-IIA^Glc) (natural protein)”, in assay [3], the stoichiometry N was 1 molar ratio.

For the substance “phosphorylation-deficient DctD (DctD_(D57Q)) of Vibrio vulnificus (natural protein)”, the stoichiometry N in assay [4] is 2.
